Laboratory results published in PMC5966876.

Target: cyclin T1 (UniProt O60563)
Assay: co-immunoprecipitation (anti-Flag IP, western blot quantification)
Details: 293T cells, lysed at 48 h posttransfection; 12% SDS-PAGE; parent: est. 100; read off a plot

Sequence of UniProt O60563 (O60563 whole entry): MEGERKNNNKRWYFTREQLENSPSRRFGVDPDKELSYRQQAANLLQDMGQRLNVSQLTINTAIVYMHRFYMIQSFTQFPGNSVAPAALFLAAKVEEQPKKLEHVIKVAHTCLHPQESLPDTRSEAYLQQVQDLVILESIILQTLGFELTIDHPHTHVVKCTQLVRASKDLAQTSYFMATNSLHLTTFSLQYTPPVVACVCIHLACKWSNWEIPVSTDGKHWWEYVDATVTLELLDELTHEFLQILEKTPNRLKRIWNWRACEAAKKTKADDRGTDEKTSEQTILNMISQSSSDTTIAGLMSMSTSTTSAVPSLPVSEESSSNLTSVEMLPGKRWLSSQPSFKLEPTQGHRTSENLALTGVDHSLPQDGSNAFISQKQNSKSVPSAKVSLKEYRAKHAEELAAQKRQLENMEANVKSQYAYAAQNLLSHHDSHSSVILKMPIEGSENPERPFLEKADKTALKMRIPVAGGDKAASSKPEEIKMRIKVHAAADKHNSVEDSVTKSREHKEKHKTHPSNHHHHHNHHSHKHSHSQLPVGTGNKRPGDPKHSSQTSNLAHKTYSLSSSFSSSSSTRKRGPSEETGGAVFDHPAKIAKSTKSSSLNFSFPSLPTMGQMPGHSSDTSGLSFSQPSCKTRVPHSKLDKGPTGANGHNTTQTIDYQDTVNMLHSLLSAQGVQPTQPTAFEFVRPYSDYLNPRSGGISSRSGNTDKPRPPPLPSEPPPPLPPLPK

Substance	percent of parent
Flag-tagged HIV-1 Tat (WT) S16A	48 % of WT Tat
Flag-tagged HIV-1 Tat (WT) S16D	20 % of WT Tat
Flag-tagged HIV-1 Tat (WT) S46A	45 % of WT Tat
Flag-tagged HIV-1 Tat (WT) S46D	22 % of WT Tat
